Assay results reported in the supplement of paper PMC9732359.
± gives the uncertainty stated by the source.

Test: protein stability index of a GFP-peptide fusion (yeast GPS) (PSI 1-4); higher = more stable; sorted into four equal gates, so the index is relative within each strain
Summary of the method: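 Tiled 17-residue peptides from yeast proteins were fused downstream of GFP on a plasmid that also expresses Cherry, and the pooled library was carried in yeast. Mid-log cultures grown in leucine-free medium were sorted into four equal gates by GFP/Cherry fluorescence ratio. Plasmids from each gate were PCR-amplified and Illumina-sequenced, and reads were assigned to strains by barcodes. Each peptide's protein stability index is the sum, over gates, of the gate's read frequency multiplied by its gate number.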

| Sequence | protein stability index (doa10∆) | protein stability index (pdr5∆) | protein stability index (san1∆) | protein stability index (ubr1∆) |
| --- | --- | --- | --- | --- |
| GSCTGKFGYILCVLDYD [RPB7] | 2.3 ± 0.084 | 2.54 ± 0.061 | 2.38 ± 0.067 | 2.31 ± 0.055 |
| FSGKGVHKLRHYLVNLT [GRR1] | 1.28 ± 0.037 | 1.44 ± 0.034 | 1.39 ± 0.07 | 1.45 ± 0.029 |
| ANPVVATDPVAAKPDNL [SWP82] | 3.26 ± 0.087 | 3.15 ± 0.097 | 3.23 ± 0.085 | 3.1 ± 0.05 |
| QYGYSGSSAGMNGRSLT [SNF6] | 3.14 ± 0.07 | 3.11 ± 0.061 | 3.17 ± 0.046 | 3.1 ± 0.042 |
| INKLMEKDFQVNKEIKP [SIR4] | 3.4 ± 0.083 | 3.31 ± 0.069 | 3.16 ± 0.069 | 3.31 ± 0.057 |
| RQLSPHTLMSFAGEAGD [PRE1] | 1.69 ± 0.052 | 1.87 ± 0.057 | 1.83 ± 0.12 | 1.96 ± 0.041 |
| SLFGSIGDDGYDLLIST [SRB5] | 2.17 ± 0.087 | 2.07 ± 0.14 | 3.05 ± 0.071 | 3.5 ± 0.11 |
| PVEKVQRIAKNDPEYMD [DLS1] | 2.75 ± 0.27 | 3.29 ± 0.14 | 3.17 ± 0.12 | 3.31 ± 0.087 |
| NREAATKEVESNIITKS [DIS3] | 2.79 ± 0.11 | 2.94 ± 0.064 | 2.79 ± 0.074 | 2.87 ± 0.089 |
| FVIPILIKMSRSPPRPP [PRP28] | 2.04 ± 0.069 | 1.93 ± 0.065 | 2.01 ± 0.088 | 2.14 ± 0.073 |
| LNLINAKLWFYIYLSHE [RPN3] | 1.43 ± 0.059 | 1.23 ± 0.056 | 1.28 ± 0.095 | 1.44 ± 0.065 |
| FSFGKPFFSSNTSSLQS [YIL149C/MLP2] | 2.95 ± 0.054 | 3.07 ± 0.052 | 2.86 ± 0.046 | 2.926 ± 0.028 |
| NVLIGGYDKKKNKPELY [PRE1] |  | 2.53 ± 0.27 |  | 2.74 ± 0.27 |
| KDERGEGEAKQKRNAHG [ITC1] | 3.21 ± 0.18 | 3.69 ± 0.23 | 3.46 ± 0.098 | 3.34 ± 0.14 |
| MIFWNDICQIDTNAPVA [SRB8] | 2.4 ± 0.063 | 1.8 ± 0.052 | 2.12 ± 0.093 | 2.02 ± 0.051 |
| YVERFETQLKVVTRSKE [SMC1] | 1.12 ± 0.066 | 2.29 ± 0.091 | 1.26 ± 0.2 | 2.11 ± 0.051 |
| KEKVSNGGVGVDVELIT [FAS2] | 2.96 ± 0.046 | 3.13 ± 0.062 | 3.11 ± 0.056 | 3.05 ± 0.05 |
| SFEKLYEGMKLGNHAIT [YMR129W/POM152] | 2.85 ± 0.17 | 1.47 ± 0.27 | 1.85 ± 0.24 | 2 ± 0.15 |
| YTDFENTFQKTVEPVYQ [FAS1] | 2.15 ± 0.099 | 2.44 ± 0.1 | 2.03 ± 0.15 | 2.73 ± 0.084 |
| VSNISCLTGTVAARMFH [ECM29] | 1.66 ± 0.042 | 1.59 ± 0.039 | 2.28 ± 0.087 | 2.19 ± 0.045 |
| NFQISKKMDDYIHRIGR [PRP28] | 3.12 ± 0.24 |  | 3.21 ± 0.13 |  |
| YDKLPAGQNATVAVMSY [RET1] | 1.17 ± 0.046 | 1.31 ± 0.046 | 1.33 ± 0.13 | 1.18 ± 0.048 |
| DEITEDMFEMSDEEENN [SSN2] | 3.16 ± 0.099 | 3.39 ± 0.11 | 3.25 ± 0.08 | 3.2 ± 0.075 |
| KELQLEKESVEKQHENA [SMC3] | 3.02 ± 0.14 | 3.32 ± 0.099 | 2.85 ± 0.071 | 3.15 ± 0.054 |
| NVELLNCIRILADKLEN [YIL149C/MLP2] | 1.22 ± 0.069 | 1.36 ± 0.074 | 1.06 ± 0.13 | 1.2 ± 0.045 |
| NSLTVDGNNANYIYAGY [RPN14] | 2.87 ± 0.088 | 2.55 ± 0.078 | 2.42 ± 0.092 | 2.85 ± 0.049 |
| ITISIHGKPTKGSSLAS [SSN8] | 2.24 ± 0.17 | 2.39 ± 0.086 | 2.43 ± 0.079 | 2.58 ± 0.041 |

| Sequence | protein stability index (doa10∆) | protein stability index (pdr5∆) | protein stability index (san1∆) | protein stability index (ubr1∆) |
| --- | --- | --- | --- | --- |
| PFNFTVTLFQMAILLLY [CDC53] | 1.65 ± 0.045 | 1.59 ± 0.045 | 1.41 ± 0.11 | 1.63 ± 0.039 |
| GVSIENENKVIIELPNE [SRB4] | 2.77 ± 0.1 | 3.02 ± 0.1 | 3.06 ± 0.055 | 2.6 ± 0.06 |
| AKRLIHGTSTSAEDEEN [CDC53] | 2.84 ± 0.14 | 2.44 ± 0.26 |  | 3.57 ± 0.19 |
| GWLGALTMANLPSWSLG [ARP7] | 3.07 ± 0.078 | 3.08 ± 0.062 | 2.68 ± 0.083 | 2.92 ± 0.057 |
| ELEHLTKKSKLESTKAE [DSN1] | 3.37 ± 0.1 | 3.08 ± 0.081 | 3.32 ± 0.095 | 3.13 ± 0.063 |
| RELYKYVRKHDPLNSNI [PRP28] | 2.96 ± 0.083 | 2.86 ± 0.082 | 2.96 ± 0.05 | 3.16 ± 0.09 |
| SVRRSGALDVEGLCIVA [RRP45] | 2.47 ± 0.15 | 3.06 ± 0.11 | 3 ± 0.11 | 2.83 ± 0.18 |
| DEIATIQSKRLRNKIAG [RPS17A] | 3.15 ± 0.11 | 3.13 ± 0.099 | 3.33 ± 0.066 | 3.48 ± 0.14 |
| NFEAALFAKSSSKKEYM [GAL11] | 1.99 ± 0.085 | 2.52 ± 0.084 | 2.17 ± 0.1 | 2.67 ± 0.058 |
| VEENRVRYTTSVMPPNE [DLS1] | 2.62 ± 0.055 | 2.79 ± 0.051 | 2.85 ± 0.048 | 2.86 ± 0.055 |
| MDTIQDKLINDVTAIQT [ECM29] | 3.22 ± 0.083 | 3.23 ± 0.1 | 3.2 ± 0.085 | 3.34 ± 0.055 |
| EKSKALESEIASSSAKL [SMC2] | 2.64 ± 0.071 | 2.96 ± 0.078 | 3.03 ± 0.043 | 2.97 ± 0.075 |
| LAKKTHKQELQDLILDL [SMC4] | 3.07 ± 0.083 | 3.25 ± 0.088 | 3.14 ± 0.055 | 3.05 ± 0.067 |
| AELELVDSLDPFSEGVT [SMC4] | 2.84 ± 0.072 | 2.64 ± 0.061 | 2.75 ± 0.12 | 3.11 ± 0.054 |
| QAYFSRLELPVDFQNDL [BRR2] | 2.65 ± 0.15 | 2.1 ± 0.064 | 2.54 ± 0.066 | 2.32 ± 0.044 |
| VDNTVPSTTLFNFGGKS [YOR098C/NUP1] | 1.75 ± 0.047 | 2.07 ± 0.049 | 2.28 ± 0.058 | 2.38 ± 0.033 |
| PPEVTSSNCHVRQKIKT [POP1] | 3.05 ± 0.071 | 3.1 ± 0.072 | 2.78 ± 0.073 | 3.01 ± 0.045 |
| SFNCENFFQAPQDYVLE [YML031W/NDC1] | 3.07 ± 0.079 | 3.06 ± 0.082 | 3.09 ± 0.07 | 3.11 ± 0.067 |
| SPNRLRVRTDDSVLLNR [YML031W/NDC1] | 2.78 ± 0.22 | 3.25 ± 0.21 | 2.99 ± 0.14 |  |
| FYERLDKSTTQLRKEIQ [MED11] | 2.61 ± 0.063 | 2.82 ± 0.081 | 2.47 ± 0.064 | 2.9 ± 0.072 |
| FQIIDTLLPGLQDEVMN [RPS2] | 2.32 ± 0.082 | 1.72 ± 0.059 | 2.22 ± 0.091 | 2.09 ± 0.05 |
| PSLNNKISDDELERILK [RPB4] | 3.09 ± 0.096 | 2.9 ± 0.098 | 3.06 ± 0.09 | 3.21 ± 0.07 |
| ESCEDILDLKEFDRRIL [RTT102] | 2.78 ± 0.16 | 3.37 ± 0.16 | 3.23 ± 0.072 | 3.07 ± 0.092 |
| LVQEQVREFQRRLAFLG [BRR2] | 2.07 ± 0.12 | 1.16 ± 0.14 | 1.04 ± 0.22 | 1.17 ± 0.087 |
| EIKGASETPLQKTVNLK [RPN4] | 3 ± 0.12 | 3.42 ± 0.13 | 3.05 ± 0.1 | 3.14 ± 0.056 |
| KKIRFLQLIIFLRTQFL [RGR1] | 1.53 ± 0.057 | 1.27 ± 0.041 | 1.19 ± 0.15 | 1.21 ± 0.073 |
